Measured values as given in the RNAGym collection of RNA variant scans (doi:10.1073/pnas.2313332121).

B1: TPR t1 (parent)
chain: GACCAAUCUGCCCUCAGAGCUCGAGAACAUCUUCGGAUGCAGAGGAGGCAGGCUUCGGUGGCGCGAUAGCGCCAACGUCCUCAACCUCCAAUGCAUCCCACCACAUGAUGAUGCCUGAAGAGCCUUGGUUUUUUG

Variants of: B1
Experiment: polymerase ribozyme fitness, log enrichment relative to wild type (log ratio); higher = more active; in vitro selection for triplet polymerase activity
In short: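 Genotype fitness is the logarithm of its enrichment divided by wild-type enrichment, using inverse-variance-weighted averages of replicates. That logarithm is base 2. Enrichment was measured by Illumina sequencing of input and output libraries from one triplicate in vitro selection round, with frozen incubation at −7 °C, on PCR-built, transcribed mutant libraries of each subunit of a heterodimeric triplet polymerase ribozyme, retaining genotypes with ≥10 input reads and ≥1 read per output.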
In the case of GAUCAAUCUGCUCUCAGAGCUCGAGAACAUCUUCGGAUGCAGAGGAGGCAGGCUUCGGUGGCGCGAUAGCGCCAACGUCCUCAACCUCCAAUGCAUCCCACCACAUGAUGAUGCCUGAAGAGCCUUGGUUUUUUG, the “polymerase ribozyme fitness (log ratio)” value is reported as -1.59. With GAUCAAUCUGCCUUCAGAGCUCGAGAACAUCUUCGGCUGCAGAGGAGGCAGGCUUCGGUGGCGCGAUAGAGCCAACGUCCUCAACCUCCAAUGCAUCCCACCACAUGAUGAUGCCUGAAGAGCCUUGGUUUUUUG the “polymerase ribozyme fitness (log ratio)” value was -1.1. With GAUCAAUCUGCCCUCAGAGCUGGAGAACAUCUUCGGAUGCAGAGGAGGCAGGCUUCGGUGGCGCGAUAGCGCCAACGUCCUCAACCUCCAAUGCAUCCCACCACAUGAUGAUGCCUGAAGAGCCUUGGUUUUUUG the “polymerase ribozyme fitness (log ratio)” value was -3.12. For GAUCAAUCUGCCCUCAGAGCUUGAGAACAUCUUCGGAUGCAGAGGAGGCAGGCUUCGGUGGCGCGAUAGCGCCAACGUCCUCAACCUCCAAUGCAUCCCACCACAUGAUGAUGCCUGAAGAGCCUUGGUUUUUUG, the “polymerase ribozyme fitness (log ratio)” value was -3.6. For GAUCAAUCUGCCUUCAGAGCUCGAGAACAUCUUCGGAUGCAGAUGAGGCAGGCUCCGGUGGCACGAUAGCGCCAACGUCCUCAACCUCCAAUGCAUCCCACCACAUGUUGAGCCCUGAAGAGCCUUGGUUUUUUG, the “polymerase ribozyme fitness (log ratio)” value was -6.03. With GAUCAAUCUGCCCUCAGAGCUCGAGAACAUCUUCGGAUGGAGAGGAAGCAGGCUUCGGUGGUGCGAUAGCGCCAACGUCCUCAGCCUCCAAUGCAUCCCACCACAUGAUGAUGCCUGAAGAGCCUUGGUUUUUUG the “polymerase ribozyme fitness (log ratio)” value was -3.81. In the case of GAUCAAUCUGCUCUCAGAGCUCGAGAACAUCUUCGGAUGCAGAGGAGGCAGGCUUCGGUGGCACGAUAGCGCCAACGUCCUCAACCUCGAAUGCAUCCCACCACAUGAUGAUGCCUGAAGAGCCUUGGUUUUUUG, the “polymerase ribozyme fitness (log ratio)” value is reported as -3.24. In the case of GAUCAAUCUGCCCUCAGAGCUCGAGAACAUCUUGGGAUGCAGAGGAGGCAGGCUUCGGUGGCUCGAUAGCGCCAACGUCCUCAACCUCCAAUGCAUCCCACCACAUGAUGAUGCCUGAAGAGCCUUGGUUUUUUG, the “polymerase ribozyme fitness (log ratio)” value is reported as -6.26. For GAUCAAUCUGCCCUCAGAGCUCGAGAACAUCUUCGGAUGCAGAGGAGGAAGGCUUCGGUGGCGCGAUAGCGCCAACGUCCUCACCCUCCAAUGCAUCCCACCAUAUGAUGAUGCCUGAAUAGCCUUGGUUUUUUG, the “polymerase ribozyme fitness (log ratio)” value was -0.46. In the case of GAUCAAUCUGCCCUCAGAGCUCGAGAACAUCUUCGGAUGUAGAGGAGGCAGGCUUCGGUGGCGCGAUAGCGCCAACGCCCUCAACCUCCAAUGCAUCCCACCACAUGAUGAUACCUGAAAAGACUUGGUUUUUUG, the “polymerase ribozyme fitness (log ratio)” value is reported as -2.82. With GAUCAAUCUGCCCUAAGAGCUCGAGAACAUCUUCGGAUGCAGAGGAGGCAGGCUUCGGUGGCGCGAUAGCGCCAACGUCCACAACCUCCAAGGCAUCCCACCACAUGAUGAUGCUUGAAGAGCCGUGGUUUUUUG the “polymerase ribozyme fitness (log ratio)” value was -5.92. In the case of GAUCAAUCUGCUCUCAGAGCUCGAGAACAUCUUCGGAUGCAGAGGAGGCAGGCUUCGGUGGCGCGAUAGCGUCAACGUCCUCAAACUCCAAUGCAUCCCACCACAUGAUGAUGCCUGAAGAGCCUUGGUUUUUUG, the “polymerase ribozyme fitness (log ratio)” value is reported as -1.01. With GAUCAAUCUGCACUCAGAGCUCGAGAACAUCUUCGGAUGCAGAGGAGGCAGGCUUCGGUGGCGCGAUAGCGCCAACGUCCUCAACCCCCAAUGCAUCCCACCACAUGAUGAUGCCUGAAGAGCUUUGGUUUUUUG the “polymerase ribozyme fitness (log ratio)” value was -0.256. With GAUCAAUCUGCCCUCAGAGCUCGAGAAUAUCUUCGGAUGCAGAGGAGGCAGGCUUCGGUGGCGCGAUAGCGCCAACGUCCUCAACCUCCAAUGCAUCCCACCACAUGAUGAUGCCUGAAGAGCCUUGGUUUUUUG the “polymerase ribozyme fitness (log ratio)” value was -2.28. For GAUCAAUCUGCACUCAGAGCUCGAGAACAUCUUCGGAUGCAGAGGUGGCAGGCUUCGGUGGCGCGAUAGCGCCAACGUCCUCAACCUCCAAUGCAUCCCACCACAUGAUGAUGCCUGAAGAGCCUUGGUUUUUUG, the “polymerase ribozyme fitness (log ratio)” value was -1.98. For GAUCAAUCUGCUCUCAGAGCUCGAGAACAUCUUCGGAUGCAGAGGAGGCAGGCUUCGGUGGCACGCUAGCGCCAACGUCCUCAACCUCCAAUGCAUCCCACCACAUGAUGAUGCCUGAAGAGCCUUGGUUUUAUG, the “polymerase ribozyme fitness (log ratio)” value was -2.5. With GAUCAAUCUGCCAUCAGAGCUCGAGAACAUCUUCGGAUGCAGAGGAGGCAGGCUUCGGUGGCGCGAUAUCGCCAACGUCCUCAACCUCCAAUGCAUCCCACCACAUGAUGAUGCCUGAAGGGCCUUGGUUUUUUG the “polymerase ribozyme fitness (log ratio)” value was 1.51. In the case of GAUCAAUCUGCAAUCAGAGCUCGAGAACAUCUUCGGAUGCAGAGGAGGUAGGCUUCGGUGGCGCGAUAGCGGCAACGUCCUCAACCUCCAAUGCAUCCUACCACAUGAUGAUGCCCGAAGAGCCUUGGUUUUUUG, the “polymerase ribozyme fitness (log ratio)” value is reported as -6.31. With GAUCAAUCUGCCAUCAGAGCUCGAGAACAUCUUCGGAUGCAGAGGAGGCAGGCUUCGGUGGCGCGAUAGCGCCAACGUCCUCAACCUCCAAUGCAUCCCACCACAUGAUGAUGCCUGAAGAGCCUUGGUUUUUUG the “polymerase ribozyme fitness (log ratio)” value was -1.28. With GAUCAAUCUGCCCUCAGAGCUAGAGAACAUCUUCGUAUGCAGAGGAGGCAGGCUUCGGUGGCGCGAUAGCCCCAACGUCCUCAUCCUCCAAUGCAUCCCACCACAUGAUGAUGCCUGAAGAGACUUGGUUUUUUG the “polymerase ribozyme fitness (log ratio)” value was -5.28. For GAUCAAUCUGCCCUCAGAGCUCGAGAACAUCUUCGGAUGUAGAGGAGGCAGGCUUCGGUGGCGCGAUAGCGCCAACGUCCUCAACCUCCAAUGCAUCCCACCACAUGAUGAUGCCUGAAGAGCCUUGGUUUUUUG, the “polymerase ribozyme fitness (log ratio)” value was -1.92.
